Molecular target: extracellular domain of p95HER2 peptide with a poly-histidine-tag in the C-terminus (human)
Experiment: SPR

B1: Oslo-2 mAb (antibody, V domains shown)
VH: EVQILETGGGLVKPGGSLRLSCATSGFNFNDYFMNWVRQAPGKGLEWIAQIRNKNYNYATYFAESLEGRFTISRDDSKSSVYLQVNSLRAEDTALYYCTELRYDYWGQGVMVTVSS
VL: DIVMTQSPFSLAVSEGEMVTINCKSSQSLLSSGNQKNNLAWYQQKPGQSPKLLIYYASTRQSGVPDRFIGSGSGTDFTLTISDVQAEDLADYYCLQHYSSPYTFGAGTKLELK
koff: 0.00893 s⁻¹

— article PMC9563779 (2022)
